Several values for one entry are separate records, joined by “and”; a condition that tells them apart may be missing. Identical values can stand only once.
Experiments:
[1] = Glycan microarray analysis, GcSTn; assay type: binding
Description: (§1) Optimized glycan arrays comprise 71 chemically synthesized and well-defined glycans, most of which comprise Neu5Ac and Neu5Gc glycan pairs.
(§2) 300 ml of epoxy blocking buffer is prepared by combining 15 ml of 2 M Tris buffer (pH 8) with 0.9 ml of 16.6 M ethanolamine and 284.1 ml of distilled water. The solution is filtered using a 0.2 μM nitrocellulose membrane. The epoxy buffer solution as well as 1 L of distilled water are pre-warmed to 50° C. Glass slides are arranged in a slide holder and quickly submerged in a staining tub with the warmed epoxy blocking buffer. Slides are incubated in the epoxy blocking buffer for 1 hour at 50° C. with periodic shaking to deactivate epoxy binding sites. Next, slides are rinsed and blocked with PBS with 1% OVA at 25° C. for one hour. Serum samples are diluted 1:1000 in PBS with 1% OVA and added to the glycan array for one hour at 25° C. After extensive washing, binding of polyclonal serum antibodies are detected by incubating glycan microarray slides with Cy3-conjugated anti-mouse IgG (Jackson Immunoresearch, West Grove, Pa.) for one hour. […]
(§3) 18D2 and 18C7 clones were expanded and binding properties of these hybridomas were determined by glycan microarray analysis according to Example 4. […] No binding to Tn antigen or other glycans was detected.

[2] = Glycan microarray analysis, 9-O-acetylated AcSTn; assay type: binding
Description: as §1, §2, §3

[3] = Glycan microarray analysis, 9-O-acetylated GcSTn; assay type: binding
Description: as §1, §2, §3

GcSTn-PAA ELISA = assay type: binding; details: 200 ng/well PAA antigen; 1:5 dilutions from 1 μM
Description: Anti-STn serum titer is determined using a murine anti-STn bovine submaxillary mucin (BSM) ELISA together with serum profiles observed by glycan microarray. 96-well plates are coated with 1 μg/well of BSM and incubated overnight at 4° C. O-acetylation of BSM antigen is removed by treating wells with 0.1 M sodium hydroxide. Specific binding to STn is determined by treatment of wells with sodium periodate. Periodate treatment destroys the C6 side chain of sialic acid; therefore antibodies raised against STn should not bind to periodate-treated wells. Wells are blocked with PBS 1% ovalbumin (OVA). Serum samples to be assayed are serially diluted in PBS 1% OVA. […] Detection of anti-STn antibodies present in serum is determined using an HRP-conjugated polyclonal goat anti-mouse IgG antibody (Jackson Immunoresearch, West Grove, Pa.). […] Optical densities are measured at 490 nm using a Spectramax microplate reader (Molecular Devices, Sunnyvale, Calif.). The serum titer is obtained by comparison of OD values with a cutoff value calculated as two standard deviations above the mean of optical density values of the negative control. […]
18D2 and 18C7 antibodies were further characterized by ELISA comprising antigens other than BSM. […] Binding of anti-STn antibodies was detected using a goat anti-mouse IgG-HRP conjugated antibody (Jackson Immunoresearch Laboratories, West Grove, Pa.). […]

[4] = test system: ST6GalNAc 1 transfected MDA-MB-231 cells; test: Flow cytometry-based analysis of antibody binding, STn+ cells; assay type: cell-based, human
Description: Flow cytometry-based analysis is carried out to elucidate the curve-dose response for binding of antibodies to cell surface antigens. For these analyses, three cell lines are employed.
MDA-MB-231 cells are human breast cancer cells. They are grown in Earle's Minimum Essential Medium supplemented with 10% fetal calf serum (FCS), 100 μg/ml penicillin, 100 UI/ml streptomycin and 45 μg/ml gentamycin. MCF-7 cells are also human breast cancer cells and are grown under the same conditions as MDA-MB-231 cells. Stably transfected versions of MDA-MB-231 and MCF-7 cells (clone TAH3.P10 for MDA-MB-231 cells and clone A12.1 for MCF-7 cells) that over express GalNAc α2,6-sialyltransferase (ST6GalNAc 1,) are also cultured under the same conditions with the exception of an added 1 mg/ml of G418 to support cells expressing the transgene. ST6GalNAc 1 is an enzyme capable of sialylating GalNAc. […]
For analysis, cells are harvested using StemPro Accutase (Life Technologies, Carlsbad, Calif.) and washed with PBS comprising 5% FBS before pelleting by light centrifugation. Cell numbers and viability are determined by trypan blue dye exclusion analysis and cell concentrations are adjusted to 5×10^6 cells/ml in PBS with 5% FBS. […] Cells are combined with 50 μl solutions of antibody being analyzed or control antibodies and incubated for 1 hour at 4° C. […]

B1: 18D2: anti-STn monoclonal antibody from mouse #4436; IgG2b κ; heavy chain SEQ ID NO 1, light chains SEQ ID NO 2 and 3 (antibody, V domains shown)
VH: QVTLKESGPGILQPSQTLSLTCSFSGFSLSTSNMGIGWIRQPSGKGLEWLAHIWWHDDKYYNPSLKSRLTISKDISNNQVFLKITSVDTADTATYYCAQVPFYYGTSFDVWGTGTTVTVSS
VL 1: DIVMTQSPATLSVTPGDRVSLSCRASQSISDYLHWYQQKSHESPRLLIKYASQSISGIPSRFSGSGSGSDFTLSINSVEPEDVGVYYCQNGHSFPLTFGAGTKLELK
VL 2: QIVLTQSPAIMSASPGETVTMTCSASSSITYMHWYQQKPGTSPKRWIYDTSKLASGVPARFSGSGSGTSYSLTISSMEAEDAATYYCHQRSSYTFGGGTKLEIKR
Glycan Array GcSTn [1]: 50%
mean fluorescence intensity, GcSTn ([1]; glycan microarray): about 7,000
mean fluorescence intensity, Neu5,9Ac2-α2,6-GalNAc [2]: about 4,500
mean fluorescence intensity, Neu5,9Ac5Gc-α2,6-GalNAc [3]: about 4,000
EC50 (GcSTn-PAA ELISA): 1.57 nM
EC50, flow cytometry binding to cell-associated STn ([4]; ST6GalNAc 1 transfected MDA-MB-231 cells (STn expressed on MDA cells)): 44.08 nM and 74.51 nM
EC50 ([4]; no unit printed (same values in nM in b551, b556)): 65.8 nM

— patent US20160264684A1, “GLYCAN-INTERACTING COMPOUNDS AND METHODS OF USE” (SIAMAB THERAPEUTICS, INC., priority 2013, published 2016)
